Experiment [1] has as its target T1, mouse delta opioid receptor (mORD1) (mouse, UniProt P32300 1-372).
T1 construct: Assayed in membranes of transfected COS-1, CHO-DG44 or COS-7 cells; also called msl-2; δ receptor
As to the kind of experiment: radioligand binding, COS-1 membranes.

Experiment [2] addresses T2, mouse kappa opioid receptor (mORK1) (mouse, UniProt P33534 1-380).
T2 construct: Assayed in membranes of transfected COS-1, PC12 or COS-7 cells; also called msl-1; κ receptor
As to the kind of experiment: radioligand binding, COS-1 membranes.

For experiment [3], the target named is T3, κ1-78/δ70-372 chimeric opioid receptor (mouse).
T3 construct: Expressed in COS-7 cells, membranes assayed
T3 chain: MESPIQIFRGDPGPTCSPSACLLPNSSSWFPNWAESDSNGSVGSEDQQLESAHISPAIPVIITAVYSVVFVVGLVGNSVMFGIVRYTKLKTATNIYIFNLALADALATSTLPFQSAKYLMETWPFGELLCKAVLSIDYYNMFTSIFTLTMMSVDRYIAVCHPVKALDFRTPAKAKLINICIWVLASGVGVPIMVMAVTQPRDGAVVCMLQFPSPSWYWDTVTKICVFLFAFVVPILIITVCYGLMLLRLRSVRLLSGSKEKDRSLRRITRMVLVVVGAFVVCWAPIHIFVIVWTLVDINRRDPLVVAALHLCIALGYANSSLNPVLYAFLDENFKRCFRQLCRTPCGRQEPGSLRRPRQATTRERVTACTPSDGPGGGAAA
As to the kind of experiment: competition vs [3H]naloxone, COS-7 membranes.
Protocol: The homogenate is centrifuged at 48,000×g for 20 min at 4° C. and the pellet resuspended in Buffer 1 and used in the radioligand binding assay. […] All radioligands were obtained from NEN/Dupont (Boston, Mass.). […] The binding reaction is terminated by the addition of ice-cold 50 mM Tris-HCL (pH 7.8) and rapid filtration over Whatman GF/B glass fiber filters that were pretreated with 0.5% polyethleneimine and 0.1% bovine serum albumin. The filters were washed with 12 ml of ice-cold buffer and soaked overnight in scintillation fluid. The bound radioactivity was determined using a scintillation counter.

Experiment [4] concerns the target T1, mouse delta opioid receptor (mORD1). As to the kind of experiment: competition vs [3H]naltrindole, CHO-DG44 membranes.
Protocol: (§1) Receptor binding assays were performed using membranes from either PC12 cells stably expressing the cloned mouse K receptor, CHO-DG44 cells stably expressing the mouse 8 receptor, or COS-7 cells transiently expressing the rat μ receptor 48-72 hours after transfection as previously described (4,10). For radioligand binding assays, cells were harvested in 50 mM Tris-HCl (pH 7.8) containing 1 mM ethylene glycol bis(β-aminoethyl ether)-N,N′-tetraacctic acid, 5 mM MgCl₂, 10 μg/ml leupeptin, 10 μg/ml pepstatin 200 μg/ml bacitracin and 0.5 μg/ml aprotinin (buffer 1) and centrifuged at 24,000 K g for 7 min at 4° C. The pellet was homogenized in buffer 1 using a Polytron (Brinkmann, setting 2.5 30 sec). The Homogenate was then centrifuged at 48,000 κ g for 20 min at 4° C. The pellet was homogenized in buffer 1 and this membrane preparation was used for the radioligand binding studies. […] The binding reaction was terminated by the addition of ice-cold 50 mM Tris-HCl buffer (pH 7.8) and rapid filtration over Whatman GF/B glass fiber filters which were pretreated with 0.5% polyethyleneimine/0.1% BSA for at least 1 hour. The filters were then washed with 12 mL of ice-cold Tris-HCl buffer and the bound radioactivity counted in a scintillation counter. Data from radioligand binding studies were used to generate inhibition curves.
The target of experiment [5] is T2, mouse kappa opioid receptor (mORK1). As to the kind of experiment: competition vs [3H]U-69,593, PC12 membranes.
Protocol: as §1
Experiment [6] addresses cloned human µ opioid receptor (human, UniProt P35372 1-400). The experiment in a line: competition vs [3H]DAMGO, COS-7 membranes.
Protocol: For radioligand binding assays, cells were harvested in 50 mM Tris-HCl (pH 7.8) containing 1 mM ethylene glycol bis(b-aminoethyl ether)-N,N′-tetraacetic acid, 5 mM MgCl₂, 10 mg/ml leupeptin, 10 mg/ml pepstatin, 200 mg/ml bacitracin and 0.5 mg/ml aprotinin (buffer 1) and centrifuged at 24,000×g for 7 min at 4° C. The pellet was homogenized in buffer 1 using a Polytron (Brinkmann, setting 2.5, 30 sec). The homogenate was then centrifuged at 48,000×g for 20 min at 4° C. The pellet was homogenized in buffer 1 and this membrane preparation was used for the radioligand binding studies. […] The binding reaction was terminated by the addition of ice-cold 50 mM Tris-HCl buffer (pH 7.8) and rapid filtration over Whatman GF/B glass fiber filters which were pretreated with 0.5% polyethyleneimine/0.1% BSA for at least 1 hour. The filters were then washed with 12 mL of ice-cold Tris-HCl buffer and the bound radioactivity counted in a scintillation counter. Data from radioligand binding 10 studies were used to generate inhibition curves.
Experiment [7] has as its target T4, rat µ opioid receptor (rat, UniProt P33535 1-398).
T4 construct: whole, on cells; Assayed in membranes of transfected COS-7 cells; also called cloned µ receptor; rat µ receptor
The experiment in a line: competition vs [3H]DAMGO, COS-7 membranes.
Protocol: as §1

Experimental findings from patent US20030211537A1 (ARCH DEVELOPMENT, published 2003) are described below.

A word on the IC50: it is the concentration that gives 50% inhibition. A lower IC50 goes with higher potency. What is called Ki is the dissociation constant of the complex between target and ligand, obtained from inhibition or displacement. High values mean weaker binding, low ones tighter binding.

Starred links: 1 amine or outer side, 2 acyl side, 3 side chain; linkers in the order of their positions; H or OH if unused. Non-standard residues stand in square brackets, D forms with d. No end group written: not given here. Tyr(125I) = 125I-labelled Tyr, O=C([C@H](Cc1ccc(O[*:3])c([125I])c1)N[*:1])[*:2]

T4 sequence (P33535 whole entry): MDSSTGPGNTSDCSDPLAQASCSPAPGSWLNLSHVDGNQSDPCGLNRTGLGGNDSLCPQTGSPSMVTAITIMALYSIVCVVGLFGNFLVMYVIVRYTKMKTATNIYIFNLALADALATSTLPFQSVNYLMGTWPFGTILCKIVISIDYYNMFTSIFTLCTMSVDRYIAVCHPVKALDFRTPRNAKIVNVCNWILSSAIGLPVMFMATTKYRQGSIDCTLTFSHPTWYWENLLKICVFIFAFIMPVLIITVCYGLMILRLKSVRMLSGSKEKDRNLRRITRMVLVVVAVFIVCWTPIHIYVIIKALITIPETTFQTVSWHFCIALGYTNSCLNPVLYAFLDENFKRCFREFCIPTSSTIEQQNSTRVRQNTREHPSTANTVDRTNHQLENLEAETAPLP
Chain of cloned human µ opioid receptor (P35372 whole entry): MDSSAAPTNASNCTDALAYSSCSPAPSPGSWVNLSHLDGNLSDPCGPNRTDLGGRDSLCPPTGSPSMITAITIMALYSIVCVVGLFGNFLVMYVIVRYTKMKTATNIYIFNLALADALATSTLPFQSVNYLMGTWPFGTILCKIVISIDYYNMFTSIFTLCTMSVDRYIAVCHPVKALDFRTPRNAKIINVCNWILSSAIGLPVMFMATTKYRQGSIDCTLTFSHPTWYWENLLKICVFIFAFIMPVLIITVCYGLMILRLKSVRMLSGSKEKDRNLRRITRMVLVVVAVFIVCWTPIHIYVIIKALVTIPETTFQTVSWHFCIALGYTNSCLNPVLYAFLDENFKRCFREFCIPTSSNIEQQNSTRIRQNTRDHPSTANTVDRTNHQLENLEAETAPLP

Consider AGCKNFFWKT[Tyr(125I)]TSC (peptide, UniProt P61278 103-116, looked up, ends and bridges not checked) [[125I-Tyr11] SRIF], for which the binding result in experiment [1] and in experiment [2] was “no binding” in each case.
For YGGFLRRIRPKLKWDNQ (peptide, UniProt P01213 207-223, looked up) [dynorphin (form not specified)], in experiment [3], the IC50 came out at 40 nM.

B1: des-Tyr1-β-endorphin (peptide, UniProt P01189 238-267, looked up)
peptide: GGFMTSEKSQTPLVTLFKNAIIKNAYKKGE
notes: domain: des-Tyr1-β-endorphin; also called des-Tyrl-β-endorphin
B1: the Ki in experiment [4], in experiment [5], in experiment [6] and in experiment [7] was > 1000 nM in each case.

B2: β-Endorphin (human) (peptide, UniProt P01189 237-267, looked up)
peptide: YGGFMTSEKSQTPLVTLFKNAIIKNAYKKGE
modifications: also: 125I-labelled where used as radioligand, site not given here
notes: domain: β-Endorphin; also called beta-endorphin
Consider B2, for which the Ki in experiment [4] and in experiment [7] was 1 nM each time.
On to YGGFM (peptide, UniProt P01210 100-104, looked up, domain: Met-enkephalin) [Met-enkephalin], for which the Ki in experiment [5] is > 1000 nM.

B3: CTOP (D-Phe-Cys-Tyr-D-Trp-Orn-Thr-Pen-Thr-NH2) (peptide)
peptide: FCYWXTXT
modifications: D-Phe at 1, D-Trp at 4, Orn at 5 (printed Om), Pen at 7, C-terminal NH2; X in the letters stands for Orn 5 and Pen 7
B3 returned a Ki in experiment [6] of 3.9 nM.
